Laboratory results: publication PMC5444726, “A CD44-specific peptide, RP-1, exhibits capacities of assisting diagnosis and predicting prognosis of gastric cancer” (Oncotarget, 2017)
Peptide text beside a SMILES is read from it. * marks the point of attachment. FITC = O=C1OC2(c3ccc(O)cc3Oc3cc(O)ccc32)c2ccc(NC(=S)*)cc21

Experiments:
[1] = tested on: CD44 on MKN-28-CD44-ox cells; assay: Confocal immunofluorescence of peptide binding to CD44-overexpressing MKN-28 cells; type: cell-based, human; details: 100 μM Alexa Fluor 594 labeled peptide, 20 min, fixed cells, confocal microscopy
Experimental: Plasmids containing cDNA of CD44 protein were synthesized by GENECHEM, Shanghai, China. Using Pfu polymerase and two oligonucleotides ([…] and […]), the CD44 cDNA was cloned into Xhol and ECOR1 sites of GV146 (GENECHEM, Shanghai, China) by recombinant PCR. Then, CD44-negative MNK-28 cells were transfected with the plasmid with Lipofectamine 2000 reagent (Invitrogen, California, USA), and then the efficiency of CD44 expression in MKN-28 cells was tested. Finally, two cell lines were generated as following: MKN-28-con with no CD44 expression and MKN-28-CD44-ox with CD44 overexpression labeled with enhanced green fluorescent protein (EGFP).
For the preparation of confocal laser microscopy, the transfected MNK-28 cancer cells were washed with phosphate buffer saline (PBS) three times, then fixed with 4% paraformaldehyde at ambient temperature for 30 min, and blocked with 5% BSA (w/v) in PBS at 37°C for 1 h. The blocked cells were sequentially incubated with 100 μM RP-1 or WYP labeled with Alexa Fluor 594 for 20 min, and counterstained with 4,6-diamidino-2-phenylindole (DAPI). […] For the evaluation of the correlation of fluorescent intensities between CD44-EGFP and RP-1-Fluor 594, a semi-quantitative analysis was performed with ImageJ 1.48v software (National Institutes of Health, Maryland, USA) by randomly selecting and observing 10 fields of vision. […]

SGC-7901 tumor tissue = assay: Fluorescence microscopy of frozen xenograft sections after injection; type: in vivo, athymic nude mice; details: 3 h after i.v. injection of peptide
Experimental: Once fluorescence signal reached its peak at the site of tumor, subcutaneous tumor tissues were harvested for further experiment. After shock-frozen with liquid nitrogen, tumor tissues were cut into 5 μm sections and fixed in 4% paraformaldehyde at ambient temperature for 30 min. The coverslips were mounted with glycerol–gelatin containing anti-fading buffer (Bioworld, Minnesota, USA). Finally, the fluorescence images of frozen sections were captured with a fluorescent microscope (Nikon-Eclipse, Tokyo, Japan)

[2] = tested on: human gastric epithelial cell line GES-1; type: cell-based; details: 200 µM
nude mice = assay: In vivo toxicity in nude mice (body weight, H&E staining); details: 1 mg/kg i.v., one week
Experimental: All animal procedures were approved by the Ethics Committee of Xi’an Jiaotong University and conducted in accordance with the Helsinki Declaration (1975). Athymic nude mice (male, 4–5 weeks old, with a body weight of 20–25 g) were obtained from the Animal Experiment Center of Xi’an Jiaotong University, Xi’an, China. The SGC-7901 tumor xenografts were generated by subcutaneous injection of 5–8 × 10^6 SGC-7901 cells suspended in 200 μL culture medium into the left axilla of mice. The cells were allowed to grow for 2 weeks until tumor volume reached an estimate of 1 cm^3.
Cell Counting Kit-8 (CCK-8, Beyotime, Shanghai, China) assay and animal experiments were performed to evaluate the in vitro and in vivo toxicity of RP-1 peptide, respectively. For CCK-8 assay, 5 × 10^3 MKN-28, SGC-7901, BGC-823 and GES-1 cells in 100 μL culture medium were incubated into each well of a 96-well plate 24 h before peptide was added. All cells were incubated with FITC-RP-1 0.064 to 200 μM. After incubation for 24 h, 48 h or 72 h, 10 μL CCK-8 reagent were added into each well and further incubated for 3 h. Then, the absorbance at 450 nm was measured with a microplate reader (Bio-Rad, Hercules, CA, USA). In animal experiments, FITC-RP-1 or PBS 1 mg/kg was intravenously injected via the tail vein. The body weight of nude mice was measured every day. […]

MKN-28 cells = type: cell-based, human; details: 200 µM
SGC-7901 cells [3] = assay: Binding affinity to gastric cancer cells (fluorescence saturation); design: species or system human; details: FITC-labeled peptide, 0 to 2.5 μM at 0.25 μM intervals, serum-free RPMI 1640, ambient temperature, 15 min, microplate reader; least squares fit, R^2 = 0.98; read-out: equilibrium dissociation constant (Kd)
Experimental: 5 × 10^5 SGC-7901 cells were inoculated into each well of a multi-well plate 24h before measurement. Both FITC- RP-1 and FITC-WYP peptide were serially diluted with RPMI 1640 culture medium containing no serum at concentrations ranged from 0 to 2.5 μM at 0.25 μM intervals, and incubated with SGC-7901 cells at ambient temperature for 15 min [40]. After washing twice with pre-cold PBS/0.2% Tween-20 solution, the unbound peptide was rinsed off, and cells were subsequently fixed in 4% paraformaldehyde at ambient temperature for 20 min. […] The equilibrium dissociation constant (Kd) was calculated using a least squares fit of the data with Origin 8.0 software (OriginLab, Massachusetts, USA). I was calculated using the Michaelis-Menten equation I = Imax([X])/(Kd+[X]), in which Imax was the maximum fluorescent intensity corresponding to peptide binding at saturation, which was calculated from the plots; I was the fluorescent intensity measured above; [X] was the concentration of total peptides and estimated to be the concentration of unbound peptide.

BGC-823 cells = type: cell-based, human; details: 200 µM
SGC-7901 cells [4] = type: cell-based, human; details: 200 µM

| Compound | binding of peptide to CD44 on the cell membrane [1] | fluorescence on tumor cells in frozen sections (SGC-7901 tumor tissue) | cell viability [2] | toxicity in vivo (nude mice) | cell viability (MKN-28 cells) | Kd (SGC-7901 cells [3]) | cell viability (BGC-823 cells) | cell viability (SGC-7901 cells [4]) |
| --- | --- | --- | --- | --- | --- | --- | --- | --- |
| WYPLAHWQTSWQ [scrambled control peptide … consisting of the same amino acids as RP-1, reference compound] | No fluorescent signal was detected | No fluorescence signal was detected | – | – | – | – | – | – |
| CC(C)C[C@H](NC(=O)[C@H](Cc1ccc(O)cc1)NC(=O)[C@H](CO)NC(=O)[C@H](Cc1c[nH]c2ccccc12)NC(=O)[C@@H]1CCCN1C(=O)[C@H](Cc1c[nH]cn1)NC(=O)[C@H](Cc1c[nH]c2ccccc12)NC(=S)Nc1ccc2c(c1)C(=O)OC21c2ccc(O)cc2Oc2cc(O)ccc21)C(=O)N[C@@H](Cc1c[nH]c2ccccc12)C(=O)N[C@H](C(=O)N[C@@H](CCC(N)=O)C(=O)N[C@@H](CCC(N)=O)C(=O)N[C@@H](C)C(=O)O)[C@@H](C)O [FITC-RP-1] ({FITC}-WHPWSYLWTQQA-OH; N-terminus and C-terminus assumed) | – | – | > 91% | low toxicity in vivo | more than 85% | 135 nM | > 84% | > 86% |
